A short description of the data set: protein stability index of a GFP-peptide fusion (GPS, HEK-293T) (PSI 1-6); higher = more stable. Conditions: c terminus: a fixed tail appended.

± gives the standard deviation.
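Further: 24-mer peptide tiles fused after GFP, lentivirally expressed, FACS-sorted into six equal bins by GFP/DsRed ratio, decoded by Illumina sequencing, PSI is the read-weighted mean bin number.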

YERSFIHKIKHKHILAKNYFSQVP [IQUB]: the protein stability index reads like this: (treatment: DMSO) 2.12 ± 0.61; (treatment: MLN4924 1 uM, 8 h) 2.24 ± 0.27.
In the same order, the values of MATQADLMELDMAMEPDRKAAVSH [CTNNB1] are 4.78 ± 0.19 and 4.95 ± 0.15.
In the same order, the values of ANETLAEMEEELRYAPLSFRNPMM [VTI1B] are 2.42 ± 0.63 and 3.01 ± 0.56.
In the same order, the values of QRNGLVFIYDMCGSNYANFELDLG [PTPN9] are 2.84 ± 0.23 and 2.37 ± 0.57.
Consider EPEEEILGSDDEEQEDPADYCKGG [SRPK2], for which the protein stability index is, setting by setting: (treatment: DMSO) 5.54 ± 0.29; (treatment: MLN4924 1 uM, 8 h) 5.55 ± 0.24.
SSGLQDVTGPDNGVRESETEQGFG [NFE2L1] yielded a protein stability index (treatment: DMSO) of 5.6 ± 0.17 and a protein stability index (treatment: MLN4924 1 uM, 8 h) of 5.39 ± 0.35.
In the same order, the values of IFEDRIRGIDIIKWMERYLRDKTV [TRAF3IP2] are 2.02 ± 0.56 and 1.99 ± 0.23.
On to LSLLELLELLLDASALTLVLGGRR [SCNN1D], for which the protein stability index is 2.99 ± 0.95 (treatment: DMSO) and 2.32 ± 0.56 (treatment: MLN4924 1 uM, 8 h).
Turning to FVQRSGNYFVTMFDDYSATLPLTL [SLC6A17], the protein stability index reads like this: (treatment: DMSO) 2.65 ± 0.18; (treatment: MLN4924 1 uM, 8 h) 2.65 ± 0.55.
In the same order, the values of QAHELAYDPNYMSPFAQFACDNGL [PPTC7] are 3.32 ± 0.12 and 3.13 ± 0.41.
In the case of HAAASNGQINVVKHLLNLGVEIDE [ANKRD44], the protein stability index is, setting by setting: (treatment: DMSO) 4.06 ± 0.35; (treatment: MLN4924 1 uM, 8 h) 4.16 ± 0.25.
For LTRHTKKTHSQELMKESLQTGDLL [PLAGL1] the same measures were 4.35 ± 0.28 and 4.59 ± 0.12.
For GARPPPTPPASPPPSVLISKNEVG [KMT2E] the same measures were 4.91 ± 0.12 and 5.08 ± 0.18.
EAAEGKSLGSALKPGEGRSALFAG [TRIM29] returned a protein stability index (treatment: DMSO) of 4.87 ± 0.17 and a protein stability index (treatment: MLN4924 1 uM, 8 h) of 4.76 ± 0.19.
For IGYVHIYLKGQREKSEKINAMLKG [GOSR1], the protein stability index reads like this: (treatment: DMSO) 2.21 ± 0.14; (treatment: MLN4924 1 uM, 8 h) 2.67 ± 0.17.
For LSFQEELLYWGIAEDHLDGCCKRR [KCNG1] the same measures were 2.35 ± 0.36 and 2.61 ± 0.26.
With TAEAEELKPFFMKEVGSHFDDFVT [SOAT1], the protein stability index is, setting by setting: (treatment: DMSO) 3.91 ± 0.25; (treatment: MLN4924 1 uM, 8 h) 3.94 ± 0.34.
For DPNKMAFGCEECGKKYNTMLGYKR [PLAGL1] the same measures were 3.07 ± 0.49 and 3.46 ± 0.64.
In the same order, the values of YIYYNEKYGGPNHHLPLPDNWKSQ [CPN1] are 2.46 ± 0.75 and 2.35 ± 0.37.
For DQSDEGSSSQKEESPSTLQVLPDS [MAGEA10] the same measures were 5.66 ± 0.21 and 5.56 ± 0.16.
As for VQSEIFLHESYCMDTSHQPLLPAP [LYSMD4], the protein stability index (treatment: DMSO) is 2.93 ± 0.23 and the protein stability index (treatment: MLN4924 1 uM, 8 h) is 2.76 ± 0.28.
For SLRKGASLSNGQGSRVLHVVQTLY [NCK2] the same measures were 2.29 ± 0.26 and 2.57 ± 0.11.
Consider IETSALDSTNVEAAFQTILTEIYR [RAB11A], for which the protein stability index runs as follows: (treatment: DMSO) 2.35 ± 0.074; (treatment: MLN4924 1 uM, 8 h) 2.44 ± 0.44.
GKKFLLLSINRYERKKNLTLALEA [ALG2]: the protein stability index came out at 2.35 ± 0.88 (treatment: DMSO) and 2.6 ± 0.39 (treatment: MLN4924 1 uM, 8 h).
Take GLRQRASNKVQDSAPVETPRGKPP [HMOX1]: the protein stability index reads like this: (treatment: DMSO) 5 ± 0.25; (treatment: MLN4924 1 uM, 8 h) 4.83 ± 0.2.
On to SAKPASLRLLQHTPSARRNYRIAG [C6orf223], for which the protein stability index reads like this: (treatment: DMSO) 3.43 ± 0.24; (treatment: MLN4924 1 uM, 8 h) 3.75 ± 0.22.
In the same order, the values of GRATKRRKKSGDLKKAKVQVERMR [FBXO34] are 4.25 ± 0.072 and 4.26 ± 0.65.
In the same order, the values of IFQEQQKKWQQYRSVRRERLKEMK [FAM9B] are 3.22 ± 0.29 and 3.22 ± 0.39.
Consider SGLGSCLPGSYLSSECHTSGFVGS [KRT36], for which the protein stability index was found to be 2.62 ± 0.32 (treatment: DMSO) and 2.69 ± 0.23 (treatment: MLN4924 1 uM, 8 h).
Take CHLAHELRLSCMERKKVQIRSMDP [DCAF4]: the protein stability index by setting is: (treatment: DMSO) 2.39 ± 0.25; (treatment: MLN4924 1 uM, 8 h) 2.42 ± 0.2.
In the same order, the values of SIPLERIHFDSYITCVSGAIVDLI [FBXO33] are 2.44 ± 0.42 and 2.26 ± 0.42.
On to IKLREYEAALNSKDAALATALGDK [LMNB1], for which the protein stability index worked out at 4.076 ± 0.039 (treatment: DMSO) and 4.38 ± 0.15 (treatment: MLN4924 1 uM, 8 h).
In the same order, the values of RTQEEKLEHVRALIKKYSDHLENV [TRIM55] are 3.24 ± 0.31 and 3.56 ± 0.27.
In the same order, the values of SCPFFETSAAYRYYIDDVFHALVR [RIT1] are 2.41 ± 0.36 and 2.54 ± 0.38.
In the same order, the values of KKNSNMTYEKLSRAMRYYYKREIL [ELF3] are 2.33 ± 0.25 and 2.27 ± 0.47.
In the case of QALSGTPKKGPAPSLSPGSSCVKY [TSPAN10], the protein stability index runs as follows: (treatment: DMSO) 4.16 ± 0.059; (treatment: MLN4924 1 uM, 8 h) 4.37 ± 0.22.
For APFPPPPAADGARAPRSPGQVTPR [C6orf223] the same measures were 5.14 ± 0.54 and 5.25 ± 0.11.
As for SNGFPERDPPRPGPSRPAEKPPRP [GCH1], the protein stability index came out at 5 ± 0.1 (treatment: DMSO) and 4.99 ± 0.082 (treatment: MLN4924 1 uM, 8 h).
For AQMAKAAAEERALFTDRMATRSTT [WEE1] the same measures were 4.8 ± 0.21 and 4.87 ± 0.25.
For LTGLNYEAPKYHIPYWVAYYLALL [NSDHL] the same measures were 2.71 ± 0.59 and 2.87 ± 0.48.
RREAVQRGRMPPTQPTHGQFALTN [NR2F2]: the protein stability index came to 3.9 ± 0.29 (treatment: DMSO) and 3.99 ± 0.25 (treatment: MLN4924 1 uM, 8 h).
For ECGKAFSQSSYLSQHRRIHSGEKP [ZNF232] the same measures were 3.57 ± 0.28 and 3.61 ± 0.15.
With DLLNNKLVTLPVSFAQLKNLKWLD [LRRC59], the protein stability index is 2.24 ± 0.23 (treatment: DMSO) and 2.17 ± 0.31 (treatment: MLN4924 1 uM, 8 h).
GRLPRIPQVLSQEFTELLKVMIHP [WEE1] came in with a protein stability index (treatment: DMSO) of 2.48 ± 0.53 and a protein stability index (treatment: MLN4924 1 uM, 8 h) of 2.47 ± 0.45.
For ARIVEIYSRRLQVQERLTKQIAVA [GCH1] the same measures were 2.33 ± 0.37 and 2.37 ± 0.2.
For NHFDMHRVGKWHQDFPVKKRKKLS [ZNF75A] the same measures were 3.56 ± 0.24 and 3.92 ± 0.076.
In the same order, the values of FGSGSNGCLGHGSLTDISQPTIVE [NEK8] are 3.5 ± 0.34 and 3.91 ± 0.2.
With STSLSFLDSCNSLTPKSTPVKTLP [MYBL2], the protein stability index is, setting by setting: (treatment: DMSO) 3.9 ± 0.13; (treatment: MLN4924 1 uM, 8 h) 3.97 ± 0.36.
As to RWLDESDAEMELRAKEEERLNKLR [HACD3], the protein stability index (treatment: DMSO) was 4.5 ± 0.3 and the protein stability index (treatment: MLN4924 1 uM, 8 h) was 4.84 ± 0.42.
Regarding DHLGWVARGTGSGEDSSTSSSTPL [RTN2], the protein stability index runs as follows: (treatment: DMSO) 4.73 ± 0.18; (treatment: MLN4924 1 uM, 8 h) 4.54 ± 0.25.
In the same order, the values of DDGKLGATGPMGMRGFKGDRGPKG [SCARA5] are 5.02 ± 0.36 and 5.07 ± 0.13.
In the same order, the values of RLASFDSSGKLICSRTTGYQILTL [GMCL1] are 2.63 ± 0.93 and 2.55 ± 0.19.

Source of the values: the supplement of paper PMC10567573.
